Holding throughout (details): tags: 125I-labelled; chain copies: 2
Series [1] concerns the target T1, VEGF165 (UniProt P15692-4 P15692-4:27-191). Put plainly: competition; VEGF/Flt-1 inhibition less effective than 30K linear; values in figure.
Series [2] has as its target T1, VEGF165. The series is described as follows: competition; VEGF/Flt-1 inhibition more effective than 10K linear; values in figure.
For series [3], the target named is T1, VEGF165. The series is described as follows: competition; CMC conjugates inhibit VEGF/Flt-1 binding better than non-enhanced aptamer; CMC alone no effect; values in figure.
The target in series [4] is T1, VEGF165. The series is described as follows: competition; 3'-PEG more effective than non-enhanced aptamer in inhibiting VEGF/Flt-1 binding; values in figure.
In series [5] the target is T1, VEGF165. The series is described as follows: competition; inhibits 125I-VEGF165 binding to Flt-1/Fc; much more effective than EYE002; PBS, 1 mM CaCl2, 1 mM MgCl2, 0.01% HSA, pH 7.4, 37 C; IC50 only in figure. The protocol:
Each well is then washed with 300 μL of binding buffer (PBS with 1 mM calcium chloride, 1 mM magnesium chloride, 0.01% HSA, PH 7.4) at room temperature twice. For KDR/Fc, 0.25 picomole (85 ng) of the chimeric receptor in 100 μL of binding buffer is added into the first 11 wells, whereas the twelfth well receive 0.5 picomole (118 ng) of human ICAM-1/Fc chimera protein as the background control well. For Flt-1/Fc, 0.125 picomole (30.8 ng) of the chimeric receptor in 100 μL of binding buffer each is added into the first 11 wells, whereas the background control well (#12) receive 0.5 picomole (118 ng) of human ICAM-1/Fc chimera protein. For neuropilin-1/Fc, 0.2 picomole (48 ng) of the chimeric receptor in 100 μl of binding buffer is added to all 12 wells. The chimeric receptors and human ICAM-1/Fc protein are captured onto the well by binding to the immobilized anti-human IgG₁ Fc fragment-specific antibody in each well at room temperature for 2 to 3 hour. […]
A set of 10 five-fold dilutions of the Pegaptanib (tube #1 to #10) ranging from 1 μM (or 2 μM) to 0.512 picomolar (pM) (or 1.024 pM) are each mixed with about 0.01 μCi of ¹²⁵I-VEGF₁₆₅ in binding buffer (PBS with 1 mM calcium chloride, 1 mM Magnesium Chloride, 0.01% HSA, pH 7.4) in non-stick 1.5 mL microfuge tubes, in a total 100 μL final volume each. […] The radioactivity of each well is determined by scintillation counting.

Series [6] concerns the target T1, VEGF165. The series is described as follows: competition; dextran conjugates inhibit VEGF/Flt-1 binding better than non-enhanced aptamer; dextran alone no effect; values in figure.
The target in series [7] is T1, VEGF165. Put plainly: competition; VEGF/Flt-1 inhibition less effective than 20K/20K branched; values in figure.

T1 sequence (P15692 other isoform, or with tags, fused parts or gaps): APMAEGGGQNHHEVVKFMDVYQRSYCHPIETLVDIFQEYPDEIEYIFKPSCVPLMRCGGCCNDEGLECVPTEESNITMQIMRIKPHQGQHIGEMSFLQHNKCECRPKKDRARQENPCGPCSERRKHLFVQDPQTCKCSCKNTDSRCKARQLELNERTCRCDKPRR

B1: 10K linear PEG VEGF aptamer conjugate (ssRNA)
RNA: CGGAAUCAGUGAAUGCUUAUACAUCCG
modifications: 2'-F on C and U, 2'-OMe on G and A except unmodified ribo A at positions 4 and 5; PEG 10K linear
Consider B1, for which, in the series with VEGF165 [1], the binding result is recorded as “binds”.

B2: 30K linear PEG VEGF aptamer conjugate (ssRNA)
RNA: CGGAAUCAGUGAAUGCUUAUACAUCCG
modifications: 2'-F on C and U, 2'-OMe on G and A except unmodified ribo A at positions 4 and 5; PEG 30K linear
For the molecule B2, in the series with VEGF165 [2], the binding result is recorded as “binds”.

B3: 5'-CMC VEGF aptamer conjugate (ssRNA)
RNA: CGGAAUCAGUGAAUGCUUAUACAUCCG
modifications: 2'-F on C and U, 2'-OMe on G and A except unmodified ribo A at positions 4 and 5; 5'-carboxymethyl cellulose (about 50 kDa)
With B3, the binding result with VEGF165 [3] is listed as “binds”.

B4: 3'-PEG VEGF aptamer conjugate (ssRNA)
RNA: CGGAAUCAGUGAAUGCUUAUACAUCCG
modifications: 2'-F on C and U, 2'-OMe on G and A except unmodified ribo A at positions 4 and 5; 3'-PEG
Regarding B4, the binding result in the series with VEGF165 [4] was “binds”.

B5: Pegaptanib (EYE001, Macugen, MacI; 20K/20K branched 5'-PEG VEGF aptamer) (ssRNA)
RNA: CGGAAUCAGUGAAUGCUUAUACAUCCG
modifications: 2'-F on C and U, 2'-OMe on G and A except unmodified ribo A at positions 4 and 5; 5'-PEG 40 kDa branched via amino linker; 3'-3' dT cap
As for B5, in the series with VEGF165 [5], the binding result is “binds”.

B6: 5'-dextran VEGF aptamer conjugate (ssRNA)
RNA: CGGAAUCAGUGAAUGCUUAUACAUCCG
modifications: 2'-F on C and U, 2'-OMe on G and A except unmodified ribo A at positions 4 and 5; 5'-dextran (e.g. 40 kDa)
Take B6: the binding result in the series with VEGF165 [6] is given as “binds”.

B7: 5K/5K branched PEG VEGF aptamer conjugate (ssRNA)
RNA: CGGAAUCAGUGAAUGCUUAUACAUCCG
modifications: 2'-F on C and U, 2'-OMe on G and A except unmodified ribo A at positions 4 and 5; PEG 5K/5K branched
As for B7, the binding result with VEGF165 [7] was “binds”.

The values above are taken from US20050260153, “Facilitation of iontophoresis using charged moieties” (published 2005).
